Results: IntAct's records for PubMed 29039417

B1: BBSome complex member BBS5 (Homo sapiens), Q8N3I7 (parent)
chain: MSVLDALWEDRDVRFDLSAQQMKTRPGEVLIDCLDSIEDTKGNNGDRGRLLVTNLRILWHSLALSRVNVSVGYNCILNITTRTANSKLRGQTEALYILTKCNSTRFEFIFTNLVPGSPRLFTSVMAVHRAYETSKMYRDFKLRSALIQNKQLRLLPQEHVYDKINGVWNLSSDQGNLGTFFITNVRIVWHANMNDSFNVSIPYLQIRSIKIRDSKFGLALVIESSQQSGGYVLGFKIDPVEKLQESVKEINSLHKVYSASPIFGVDYEMEEKPQPLEALTVEQIQDDVEIDSDGHTDAFVAYFADGNKQQDREPVFSEELGLAIEKLKDGFTLQGLWEVMS
partner: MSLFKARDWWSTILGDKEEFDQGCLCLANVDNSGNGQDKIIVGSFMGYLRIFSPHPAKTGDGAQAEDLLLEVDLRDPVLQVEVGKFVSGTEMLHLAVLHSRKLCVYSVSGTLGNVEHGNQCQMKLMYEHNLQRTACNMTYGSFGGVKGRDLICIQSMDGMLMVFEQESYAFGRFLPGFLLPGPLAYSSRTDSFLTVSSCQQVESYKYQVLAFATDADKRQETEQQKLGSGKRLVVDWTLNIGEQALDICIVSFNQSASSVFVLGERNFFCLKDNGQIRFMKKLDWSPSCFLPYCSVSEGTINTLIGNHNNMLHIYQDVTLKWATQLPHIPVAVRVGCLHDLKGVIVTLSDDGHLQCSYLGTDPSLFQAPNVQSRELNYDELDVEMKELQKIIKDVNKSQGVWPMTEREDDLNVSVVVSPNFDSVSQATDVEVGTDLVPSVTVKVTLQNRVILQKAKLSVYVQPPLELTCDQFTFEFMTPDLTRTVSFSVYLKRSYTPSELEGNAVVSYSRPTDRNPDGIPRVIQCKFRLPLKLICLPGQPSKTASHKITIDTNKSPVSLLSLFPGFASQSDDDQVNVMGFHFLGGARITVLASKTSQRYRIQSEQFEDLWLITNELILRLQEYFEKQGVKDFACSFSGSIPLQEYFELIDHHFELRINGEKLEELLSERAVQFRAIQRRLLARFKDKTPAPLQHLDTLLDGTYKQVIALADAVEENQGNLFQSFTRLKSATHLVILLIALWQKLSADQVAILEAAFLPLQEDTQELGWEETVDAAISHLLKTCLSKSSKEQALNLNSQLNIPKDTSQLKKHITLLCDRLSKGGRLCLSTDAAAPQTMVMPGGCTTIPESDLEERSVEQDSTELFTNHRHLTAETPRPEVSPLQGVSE

Variants of: B1
Settings: with pthb1_human BBS9, Q3SYG4

Effect of a mutation on the interaction, with no effect:
MSVLDALWEDRDVRFDLSAQQMKTRPGEVLIDCLDSIEDTKGNNGDRGRLLVTNLRILWHSLALSRVNVSVGYNCILNITTRTANSKLRGQTEALYILTKCNSTRFEFIFTNLVPGSPRLFTSVMAVHRAYETSKMYRDFKLRSALIQNKQLRLLPQEHVYDKINGVWNLSSDQGNLGTFFITNVRIVWHANMNDSFNVSIPYLQIRSIKIRDSKFGLALVIESSQQSGGYVLGFKIDPVEKLQESVKEINSAHKVYSASPIFGVDYEMEEKPQPLEALTVEQIQDDVEIDSDGHTDAFVAYFADGNKQQDREPVFSEELGLAIEKLKDGFTLQGLWEVMS [L253A]
MSVLDALWEDRDVRFDLSAQQMKTRPGEVLIDCLDSIEDTKGNNGDRGRLLVTNLRILWHSLALSRVNVSVGYNCILNITTRTANSKLRGQTEALYILTKCNSTRFEFIFTNLVPGSPRLFTSVMAVHRAYETSKMYRDFKLRSALIQNKQLRLLPQEHVYDKINGVWNLSSDQGNLGTFFITNVRIVWHANMNDSFNVSIPYLQIRSIKIRDSKFGLALVIESSQQSGGYVLGFKIDPVEKLQESVKEINSKHKVYSASPIFGVDYEMEEKPQPLEALTVEQIQDDVEIDSDGHTDAFVAYFADGNKQQDREPVFSEELGLAIEKLKDGFTLQGLWEVMS [L253K]
MSVLDALWEDRDVRFDLSAQQMKTRPGEVLIDCLDSIEDTKGNNGDRGRLLVTNLRILWHSLALSRVNVSVGYNCILNITTRTANSKLRGQTEALYILTKCNSTRFEFIFTNLVPGSPRLFTSVMAVHRAYETSKMYRDFKLRSALIQNKQLRLLPQEHVYDKINGVWNLSSDQGNLGTFFITNVRIVWHANMNDSFNVSIPYLQIRSIKIRDSKFGLALVIESSQQSGGYVLGFKIDPVEKLQESVKEINSEHKVYSASPIFGVDYEMEEKPQPLEALTVEQIQDDVEIDSDGHTDAFVAYFADGNKQQDREPVFSEELGLAIEKLKDGFTLQGLWEVMS [L253E]
MSVLDALWEDRDVRFDLSAQQMKTRPGEVLIDCLDSIEDTKGNNGDRGRLLVTNLRILWHSLALSRVNVSVGYNCILNITTRTANSKLRGQTEALYILTKCNSTRFEFIFTNLVPGSPRLFTSVMAVHRAYETSKMYRDFKLRSALIQNKQLRLLPQEHVYDKINGVWNLSSDQGNLGTFFITNVRIVWHANMNDSFNVSIPYLQIRSIKIRDSKFGLALVIESSQQSGGYVLGFKIDPVEKLQESVKEIKSLHKVYSASPIFGVDYEMEEKPQPLEALTVEQIQDDVEIDSDGHTDAFVAYFADGNKQQDREPVFSEELGLAIEKLKDGFTLQGLWEVMS [N251K]
MSVLDALWEDRDVRFDLSAQQMKTRPGEVLIDCLDSIEDTKGNNGDRGRLLVTNLRILWHSLALSRVNVSVGYNCILNITTRTANSKLRGQTEALYILTKCNSTRFEFIFTNLVPGSPRLFTSVMAVHRAYETSKMYRDFKLRSALIQNKQLRLLPQEHVYDKINGVWNLSSDQGNLGTFFITNVRIVWHANMNDSFNVSIPYLQIRSIKIRDSKFGLALVIESSQQSGGYVLGFKIDPVEKLQESVKEIESLHKVYSASPIFGVDYEMEEKPQPLEALTVEQIQDDVEIDSDGHTDAFVAYFADGNKQQDREPVFSEELGLAIEKLKDGFTLQGLWEVMS [N251E]
MSVLDALWEDRDVRFDLSAQQMKTRPGEVLIDCLDSIEDTKGNNGDRGRLLVTNLRILWHSLALSRVNVSVGYNCILNITTRTANSKLRGQTEALYILTKCNSTRFEFIFTNLVPGSPRLFTSVMAVHRAYETSKMYRDFKLRSALIQNKQLRLLPQEHVYDKINGVWNLSSDQGNLGTFFITNVRIVWHANMNDSFNVSIPYLQIRSIKIRDSKFGLALVIESSQQSGGYVLGFKIDPVEKLQESVKEINSLHKVASASPIFGVDYEMEEKPQPLEALTVEQIQDDVEIDSDGHTDAFVAYFADGNKQQDREPVFSEELGLAIEKLKDGFTLQGLWEVMS [Y257A]
MSVLDALWEDRDVRFDLSAQQMKTRPGEVLIDCLDSIEDTKGNNGDRGRLLVTNLRILWHSLALSRVNVSVGYNCILNITTRTANSKLRGQTEALYILTKCNSTRFEFIFTNLVPGSPRLFTSVMAVHRAYETSKMYRDFKLRSALIQNKQLRLLPQEHVYDKINGVWNLSSDQGNLGTFFITNVRIVWHANMNDSFNVSIPYLQIRSIKIRDSKFGLALVIESSQQSGGYVLGFKIDPVEKLQESVKEINSLKKVYSASPIFGVDYEMEEKPQPLEALTVEQIQDDVEIDSDGHTDAFVAYFADGNKQQDREPVFSEELGLAIEKLKDGFTLQGLWEVMS [H254K]
MSVLDALWEDRDVRFDLSAQQMKTRPGEVLIDCLDSIEDTKGNNGDRGRLLVTNLRILWHSLALSRVNVSVGYNCILNITTRTANSKLRGQTEALYILTKCNSTRFEFIFTNLVPGSPRLFTSVMAVHRAYETSKMYRDFKLRSALIQNKQLRLLPQEHVYDKINGVWNLSSDQGNLGTFFITNVRIVWHANMNDSFNVSIPYLQIRSIKIRDSKFGLALVIESSQQSGGYVLGFKIDPVEKLQESVKEINSLEKVYSASPIFGVDYEMEEKPQPLEALTVEQIQDDVEIDSDGHTDAFVAYFADGNKQQDREPVFSEELGLAIEKLKDGFTLQGLWEVMS [H254E]
MSVLDALWEDRDVRFDLSAQQMKTRPGEVLIDCLDSIEDTKGNNGDRGRLLVTNLRILWHSLALSRVNVSVGYNCILNITTRTANSKLRGQTEALYILTKCNSTRFEFIFTNLVPGSPRLFTSVMAVHRAYETSKMYRDFKLRSALIQNKQLRLLPQEHVYDKINGVWNLSSDQGNLGTFFITNVRIVWHANMNDSFNVSIPYLQIRSIKIRDSKFGLALVIESSQQSGGYVLGFKIDPVEKLQESVKEINSLAKVYSASPIFGVDYEMEEKPQPLEALTVEQIQDDVEIDSDGHTDAFVAYFADGNKQQDREPVFSEELGLAIEKLKDGFTLQGLWEVMS [H254A]
MSVLDALWEDRDVRFDLSAQQMKTRPGEVLIDCLDSIEDTKGNNGDRGRLLVTNLRILWHSLALSRVNVSVGYNCILNITTRTANSKLRGQTEALYILTKCNSTRFEFIFTNLVPGSPRLFTSVMAVHRAYETSKMYRDFKLRSALIQNKQLRLLPQEHVYDKINGVWNLSSDQGNLGTFFITNVRIVWHANMNDSFNVSIPYLQIRSIKIRDSKFGLALVIESSQQSGGYVLGFKIDPVEKLQESVKEINSLHAVYSASPIFGVDYEMEEKPQPLEALTVEQIQDDVEIDSDGHTDAFVAYFADGNKQQDREPVFSEELGLAIEKLKDGFTLQGLWEVMS [K255A]
MSVLDALWEDRDVRFDLSAQQMKTRPGEVLIDCLDSIEDTKGNNGDRGRLLVTNLRILWHSLALSRVNVSVGYNCILNITTRTANSKLRGQTEALYILTKCNSTRFEFIFTNLVPGSPRLFTSVMAVHRAYETSKMYRDFKLRSALIQNKQLRLLPQEHVYDKINGVWNLSSDQGNLGTFFITNVRIVWHANMNDSFNVSIPYLQIRSIKIRDSKFGLALVIESSQQSGGYVLGFKIDPVEKLQESVKEINSLHEVYSASPIFGVDYEMEEKPQPLEALTVEQIQDDVEIDSDGHTDAFVAYFADGNKQQDREPVFSEELGLAIEKLKDGFTLQGLWEVMS [K255E]
MSVLDALWEDRDVRFDLSAQQMKTRPGEVLIDCLDSIEDTKGNNGDRGRLLVTNLRILWHSLALSRVNVSVGYNCILNITTRTANSKLRGQTEALYILTKCNSTRFEFIFTNLVPGSPRLFTSVMAVHRAYETSKMYRDFKLRSALIQNKQLRLLPQEHVYDKINGVWNLSSDQGNLGTFFITNVRIVWHANMNDSFNVSIPYLQIRSIKIRDSKFGLALVIESSQQSGGYVLGFKIDPVEKLQESVKEINKLHKVYSASPIFGVDYEMEEKPQPLEALTVEQIQDDVEIDSDGHTDAFVAYFADGNKQQDREPVFSEELGLAIEKLKDGFTLQGLWEVMS [S252K]
MSVLDALWEDRDVRFDLSAQQMKTRPGEVLIDCLDSIEDTKGNNGDRGRLLVTNLRILWHSLALSRVNVSVGYNCILNITTRTANSKLRGQTEALYILTKCNSTRFEFIFTNLVPGSPRLFTSVMAVHRAYETSKMYRDFKLRSALIQNKQLRLLPQEHVYDKINGVWNLSSDQGNLGTFFITNVRIVWHANMNDSFNVSIPYLQIRSIKIRDSKFGLALVIESSQQSGGYVLGFKIDPVEKLQESVKEINELHKVYSASPIFGVDYEMEEKPQPLEALTVEQIQDDVEIDSDGHTDAFVAYFADGNKQQDREPVFSEELGLAIEKLKDGFTLQGLWEVMS [S252E]
MSVLDALWEDRDVRFDLSAQQMKTRPGEVLIDCLDSIEDTKGNNGDRGRLLVTNLRILWHSLALSRVNVSVGYNCILNITTRTANSKLRGQTEALYILTKCNSTRFEFIFTNLVPGSPRLFTSVMAVHRAYETSKMYRDFKLRSALIQNKQLRLLPQEHVYDKINGVWNLSSDQGNLGTFFITNVRIVWHANMNDSFNVSIPYLQIRSIKIRDSKFGLALVIESSQQSGGYVLGFKIDPVEKLQESVKEINALHKVYSASPIFGVDYEMEEKPQPLEALTVEQIQDDVEIDSDGHTDAFVAYFADGNKQQDREPVFSEELGLAIEKLKDGFTLQGLWEVMS [S252A]
MSVLDALWEDRDVRFDLSAQQMKTRPGEVLIDCLDSIEDTKGNNGDRGRLLVTNLRILWHSLALSRVNVSVGYNCILNITTRTANSKLRGQTEALYILTKCNSTRFEFIFTNLVPGSPRLFTSVMAVHRAYETSKMYRDFKLRSALIQNKQLRLLPQEHVYDKINGVWNLSSDQGNLGTFFITNVRIVWHANMNDSFNVSIPYLQIRSIKIRDSKFGLALVIESSQQSGGYVLGFKIDPVEKLQESVKEINSLHKAYSASPIFGVDYEMEEKPQPLEALTVEQIQDDVEIDSDGHTDAFVAYFADGNKQQDREPVFSEELGLAIEKLKDGFTLQGLWEVMS [V256A]
MSVLDALWEDRDVRFDLSAQQMKTRPGEVLIDCLDSIEDTKGNNGDRGRLLVTNLRILWHSLALSRVNVSVGYNCILNITTRTANSKLRGQTEALYILTKCNSTRFEFIFTNLVPGSPRLFTSVMAVHRAYETSKMYRDFKLRSALIQNKQLRLLPQEHVYDKINGVWNLSSDQGNLGTFFITNVRIVWHANMNDSFNVSIPYLQIRSIKIRDSKFGLALVIESSQQSGGYVLGFKIDPVEKLQESVKEINSLHKEYSASPIFGVDYEMEEKPQPLEALTVEQIQDDVEIDSDGHTDAFVAYFADGNKQQDREPVFSEELGLAIEKLKDGFTLQGLWEVMS [V256E]
MSVLDALWEDRDVRFDLSAQQMKTRPGEVLIDCLDSIEDTKGNNGDRGRLLVTNLRILWHSLALSRVNVSVGYNCILNITTRTANSKLRGQTEALYILTKCNSTRFEFIFTNLVPGSPRLFTSVMAVHRAYETSKMYRDFKLRSALIQNKQLRLLPQEHVYDKINGVWNLSSDQGNLGTFFITNVRIVWHANMNDSFNVSIPYLQIRSIKIRDSKFGLALVIESSQQSGGYVLGFKIDPVEKLQESVKEINSLHKKYSASPIFGVDYEMEEKPQPLEALTVEQIQDDVEIDSDGHTDAFVAYFADGNKQQDREPVFSEELGLAIEKLKDGFTLQGLWEVMS [V256K]
